According to article PMC9820559, “Investigation of the Fuzzy Complex between RSV Nucleoprotein and Phosphoprotein to Optimize an Inhibition Assay by Fluorescence Polarization” (International Journal of Molecular Sciences, 2022):
Ends that are not written are not given here. * marks the point of attachment. dicyano BODIPY FL = CC1=CC(C)=[N+]2C1=Cc1ccc(CCC(=O)*)n1[B-]2(C#N)C#N

Legend:
Settings in all cases: both partners purified
[1] = target: T1, RSV N-RNA complex (full-length N protein in ring-shaped complexes with bacterial RNA) (human respiratory syncytial virus, UniProt P03418 1-391); test: fluorescence polarisation; competition: unlabeled P peptide varied against 200 nM F11 on 10 µM N-RNA; Tris pH 8 without salt; Hill equation; Ki from the IC50-to-Ki server
T1 construct: human RSV nucleoprotein N, full length; concentrations are of N protomer; also called N-RNA rings; source: in lysate for the co-purification; purified (glutathione-Sepharose, thrombin, Superdex 200) as N-RNA complex; copies: 10-11
T1 sequence (looked up): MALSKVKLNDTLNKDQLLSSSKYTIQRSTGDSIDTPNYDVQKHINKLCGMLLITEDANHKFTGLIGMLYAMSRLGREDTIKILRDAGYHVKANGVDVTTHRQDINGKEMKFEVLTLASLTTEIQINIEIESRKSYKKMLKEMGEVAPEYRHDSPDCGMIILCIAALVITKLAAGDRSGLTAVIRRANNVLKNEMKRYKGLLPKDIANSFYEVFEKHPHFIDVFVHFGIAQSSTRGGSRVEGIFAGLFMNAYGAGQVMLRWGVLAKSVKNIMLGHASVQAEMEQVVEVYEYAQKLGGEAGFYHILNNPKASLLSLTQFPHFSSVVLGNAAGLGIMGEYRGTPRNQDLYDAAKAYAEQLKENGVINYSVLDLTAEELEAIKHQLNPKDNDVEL

[2] = target: T1, RSV N-RNA complex (full-length N …); test: fluorescence polarisation; competition: unlabeled P7E varied against 200 nM F7E on 10 µM N-RNA; Tris pH 8 without salt; Hill equation; Ki from the IC50-to-Ki server
[3] = target: T1, RSV N-RNA complex (full-length N …); test: fluorescence polarisation; competition: unlabeled P5E varied against 200 nM F5E on 10 µM N-RNA; Tris pH 8 without salt; Hill equation; Ki from the IC50-to-Ki server
[4] = target: T1, RSV N-RNA complex (full-length N …); test: fluorescence polarisation; 200 nM dicyano BODIPY FL-labelled BCNn peptide, N-RNA varied; 20 mM Tris pH 8.0 without salt, 0.01% Brij-35; 20 °C; single site model
[5] = target: T1, RSV N-RNA complex (full-length N …); test: fluorescence polarisation; 200 nM dicyano BODIPY FL-labelled BCNn peptide, N-RNA varied; 20 mM Tris pH 8.0 with 100 mM NaCl, 0.01% Brij-35; 20 °C; single site model
[6] = target: T1, RSV N-RNA complex (full-length N …); test: fluorescence polarisation; competition: unlabeled P_(10EE) varied against 200 nM BCN_(10EE) on 1 µM N-RNA; Tris pH 8 buffer; Hill equation; Ki from the IC50-to-Ki server

B1: P9E (unlabeled RSV P 9-mer, Ser237Glu) (peptide)
peptide: DNDLELEDF
notes: unlabeled peptide from which F9E was made; C-terminal 9 residues of RSV phosphoprotein P; source: synthetic peptide (Fmoc/tBu solid phase, RP-HPLC purified)
[1]
  IC50: 66 ± 6 µM
  Ki: 25 µM

B2: P7E (unlabeled RSV P 7-mer, Ser237Glu) (peptide)
peptide: DLELEDF
notes: unlabeled peptide from which F7E was made; C-terminal 7 residues of RSV phosphoprotein P; source: synthetic peptide (Fmoc/tBu solid phase, RP-HPLC purified)
[2]
  IC50: 376 ± 26 µM
  Ki: 74 µM
[1]
  IC50: 180 ± 11 µM
  Ki: 75 µM

B3: P5E (unlabeled RSV P 5-mer, Ser237Glu) (peptide)
peptide: ELEDF
notes: unlabeled peptide from which F5E was made; C-terminal 5 residues of RSV phosphoprotein P; source: synthetic peptide (Fmoc/tBu solid phase, RP-HPLC purified)
[3]
  IC50: 433 ± 21 µM
  Ki: 158 µM

B4: BCN_(11SE) (dicyano BODIPY FL-labelled RSV P 11-mer, Ser237Glu) (peptide)
peptide: {dicyano BODIPY FL}-DSDNDLELEDF
notes: C-terminal 11 residues of RSV phosphoprotein P with a phosphomimetic glutamate at 237; source: synthetic peptide (Fmoc/tBu solid phase, dicyano BODIPY FL coupled on resin, RP-HPLC purified)
[4]
  Kd: 0.82 ± 0.22 µM
[5]
  Kd: 0.55 ± 0.07 µM

B5: BCN_(10EE) (dicyano BODIPY FL-labelled RSV P 10-mer, Ser232Glu/Ser237Glu) (peptide)
peptide: {dicyano BODIPY FL}-EDNDLELEDF
notes: C-terminal 10 residues of RSV phosphoprotein P with phosphomimetic glutamates at 232 and 237; also called B_(10EE); source: synthetic peptide (Fmoc/tBu solid phase, dicyano BODIPY FL coupled on resin, RP-HPLC purified)
[4]
  Kd: 0.16 ± 0.03 µM
[5]
  Kd: 1.24 ± 0.31 µM

B6: BCN9E (dicyano BODIPY FL-labelled RSV P 9-mer, Ser237Glu) (peptide)
peptide: {dicyano BODIPY FL}-DNDLELEDF
notes: C-terminal 9 residues of RSV phosphoprotein P with a phosphomimetic glutamate at 237; also called B9E; source: synthetic peptide (Fmoc/tBu solid phase, dicyano BODIPY FL coupled on resin, RP-HPLC purified)
[4]
  Kd: 0.96 ± 0.13 µM

B7: BCN8E (dicyano BODIPY FL-labelled RSV P 8-mer, Ser237Glu) (peptide)
peptide: {dicyano BODIPY FL}-NDLELEDF
notes: C-terminal 8 residues of RSV phosphoprotein P with a phosphomimetic glutamate at 237; also called B8E; source: synthetic peptide (Fmoc/tBu solid phase, dicyano BODIPY FL coupled on resin, RP-HPLC purified)
[4]
  Kd: 1.43 ± 0.08 µM
[5]
  Kd: 7.1 ± 0.1 µM

B8: P_(10EE) (unlabeled RSV P 10-mer, Ser232Glu/Ser237Glu) (peptide)
peptide: EDNDLELEDF
notes: unlabeled equivalent of BCN_(10EE), which was made from P_(10EE) on resin; C-terminal 10 residues of RSV phosphoprotein P; source: synthetic peptide
[6]
  IC50: 21 ± 4 µM
  Ki: 2.9 µM
